# Reference: PMC9174178 (Cell Reports, 2022)
# Molecular target: SARS-CoV-2 spike HexaPro (S) (SARS-CoV-2 (Wuhan-Hu-1), UniProt P0DTC2, stabilised)
# Experiment: cryo-EM structure
row,Binder,binding result
1,psNb 1-8 (VHH) VHH: QVQLVESGGGLVQTGGSLRLSCAASGRTFSNYVMGWFRQAPGKEREFVSSIEWNSENTFYANSVKGRFTISRDNAKNTVYLQMNSLKAEDTAVYYCAADRGSSYYYTRASEYTYWGQGTQVTVSS,binds
2,psNb 2-65 (VHH) VHH: HVQLVESGGGLVQAGGSLRLSCAASGTISTLNAMGWYRQAPGKQRELLASISNLGTTYHADSVAGRFTISRGSAKNTVNLQMNSLKPDDTAVYYCNTRVLEGGTQIRDYWGQGTQVTVSS,binds
3,psNb 1-22 (VHH) VHH: HVQLVESGGGLVQPGGSLRLSCAASGRSFNSYLMGWFRQAPGKEREFVAWISGSPHDIIRYRDSVKDRFTISRDNAKNTVYLQMNSLKPVDTAVYYCAVGSLRVGSFSPDYWGQGTQVTVSS,binds
4,psNb 2-67 (VHH) VHH: EVQLVESGGGLVQTGGSLRLSCALSGYTFSIFPTAWFRQAPGKEREFVAGIRWNGSTRDYTEYADFVKGRFTISRDNAKNMVYLQMISLKPEDTALYYCAASDGVIDGTNANAYRYWGQGTQVTVSS,binds
5,psNb 2-45 (VHH) VHH: QVQLVESGGGLVQAGGSLRLSCTASGYDFSILAIAWYRQAPGKERELVAAISRVGSTDYADSVKGRFTISRDNTKNTVSLQMDSLKPEDTAVYYCNAGIPMTTVLSGLGFWGQGTQVTVSS,binds
6,psNb 2-38 (VHH) VHH: QVQLVESGGGLVQAGGSLRLSCAAAARFSTSAMGWFRQAPGKEREFVAAISWSNTNTHYADTVKGRFTISADTAKETVDLQMNSLKPEDTAVYYCVQGGWGIRQPIIVDYWGKGTQVTVSS,binds
7,psNb 2-57 (VHH) VHH: QVQLVESGGGLVQAGGSLRLSCAVSGRTISTFGMGWFRQAPGKEREFVATITRDEDMLLYADSVKGRFTISRDTAKNMVFLQMNSLKIEDTALYYCAVRRDSSWGYSRQSTEYDYWGQGTQVTVSS,binds
8,psNb 1-23 (VHH) VHH: QVQLVESGGGLVQAGGSLRLSCAASGRTDSISDMGWFRQAPGKEREFVAVVGWSGGGTDYAHSVKGRFTISRDNAKNTVYLQMNSLKPEDTAVYYCAVGSLRVGSFSVEYWGQGTQVTVSS,binds
9,psNb 2-34 (VHH) VHH: HVQLVESGGGLVQAGGSLRLSCAASGRTFSRYAAGWFRQAPGKEREFVAVIEWDGDSAYYADPVKGRFTISRDNAKNTVYLQMNRLKPEDTAVYICAVGGNHYSRSKYYNLDEYDDWGQGTQVTVSS,binds
